Experimental data as given in patent publication US20250230239A1.
Changes are numbered by the printed parent chain. Each block holds one binder with its values, some of them ahead of it.

Target: recombinant his-tagged and biotinylated CD3ε protein (AcroBiosystems, CDE-H8223), human (human) (UniProt P07766)
Assay: BLI (Octet RED96), biotinylated his-tagged CD3ε on SSA biosensor, bispecific as analyte 200 to 3.125 nM

recombinant his-tagged and biotinylated CD3ε protein (AcroBiosystems, CDE-H8223), human (human), sequence (P07766 23-126 limits assumed): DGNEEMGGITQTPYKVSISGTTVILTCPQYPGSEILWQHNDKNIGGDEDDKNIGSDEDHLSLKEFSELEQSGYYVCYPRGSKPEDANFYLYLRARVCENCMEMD

Kd: 1.66 to 5.64 nM
B1: monovalent bispecific antibody comprising anti-CD3 scFv v619_HLh (SEQ ID NO: 28) and a Her2-binding domain (bispecific antibody, part only; not given: Her2 arm and Fc, not shown: another chain or arm of the molecule; a dimerising Fc or GST; small tags and cut ends)
scFv: EVQLVESGGGLVQPGGSLKLSCAASGFTFSTYAMNWVRQASGKGLEWVGRIRSKYNNYATYYADSVKDRFTISRDDSKNTAYLQMNSLKTEDTAVYYCVRHGNFGNSYVSWWAYWGQGTLVTVSSGGGGSGGGGSGGGGSQTVVTQEPSLTVSPGGTVTLTCGSSTGAVTTSNYVNWVQQKPGQAPRGLIGGTNKRAPGTPARFSGSLIGGKAALTLSGAQPEDEAEYYCVLWYSNRWVFGGGTKLTVL

Kd: 11 nM
B2: monovalent bispecific antibody comprising anti-CD3 scFv v619-HLh-CC4 (SEQ ID NO: 32) and a Her2-binding domain (bispecific antibody, part only; not given: Her2 arm and Fc, not shown: another chain or arm of the molecule; a dimerising Fc or GST; small tags and cut ends)
scFv: B1 scFv with W112F, Q117C, Q184C
modifications: Engineered VH-VL disulfide (Cys at VH 117 and VL 44 of the domains) within the scFv
